Some targets named below: HLA-A*24:02; HLA-A*30:02; HLA-A*01:01; HLA-A*29:02; HLA-A*26:01; HLA-A*23:01; HLA-A*32:01; HLA-A*30:01; HLA-A*02:06; HLA-A*02:02; HLA-A*02:03; HLA-A*68:02; HLA-A*02:01.
What all share (experiment): IEDB peptide-MHC binding, purified MHC/competitive/radioactivity; filed as Kd, often an IC50 or EC50 that approximates it; ≥ and ≤ were set here for values at or beyond the usual limits of such assays
The target of the next assay is HLA-A*33:01. To be noted: source organism: Vaccinia virus WR.
Another assay deals with HLA-A*31:01. To be noted: source organism: Vaccinia virus WR.
For a further assay, the target named is HLA-B*51:01. To be noted: source organism: Vaccinia virus WR.
In the next assay the target is HLA-B*53:01. To be noted: source organism: Vaccinia virus WR.
Another assay has as its target HLA-B*07:02. To be noted: source organism: Vaccinia virus WR.
In a further assay the target is HLA-B*35:01. To be noted: source organism: Vaccinia virus WR.
The target of the next assay is HLA-A*03:01. To be noted: source organism: Vaccinia virus WR.
The target in another assay is HLA-B*54:01. To be noted: source organism: Vaccinia virus WR.
The target of the next assay is HLA-A*11:01. To be noted: source organism: Vaccinia virus WR.
The target of the next assay is HLA-A*68:01. To be noted: source organism: Vaccinia virus WR.
The target of a further assay is HLA-B*44:03. To be noted: source organism: Dengue virus 1 Brazil/97-11/1997.
[1] abbreviates: source organism: Mammarenavirus juninense.
Setting [2] is: source organism: SARS coronavirus Tor2.
The mark [3] stands for this setting: source organism: Mammarenavirus whitewaterense.
Where [4] appears, read: source organism: Mammarenavirus brazilense.
Where [5] appears, read: source organism: Dengue virus 4 Philippines/H241/1956.
Where [6] appears, read: source organism: Vaccinia virus WR.
Setting [7] is: source organism: Trypanosoma cruzi.
Setting [8] is: source organism: Dengue virus 2 Jamaica/1409/1983.
[9] abbreviates: source organism: Dengue virus 1 Brazil/97-11/1997.
[10] abbreviates: source organism: Mammarenavirus guanaritoense.
The mark [11] stands for this setting: source organism: Lassa virus Josiah.

One may read the Kd as the equilibrium constant for the complex coming apart.

As to SMRSVQRNTV, the Kd with HLA-A*24:02 (setting [1]) is no less than 70.3 µM; with HLA-A*30:02 (setting [1]) it was 7.86 µM; with HLA-A*01:01 (setting [1]) it was 2.99 µM; in the assay with HLA-A*29:02 (setting [1]), no less than 71.4 µM; with HLA-A*26:01 (setting [1]), no less than 69.7 µM; with HLA-A*23:01 (setting [1]), no less than 70 µM.
Turning to YYCKSHKPPI, the Kd is 0.193 µM with HLA-A*24:02 (setting [2]); 11.5 µM in the assay with HLA-A*30:02 (setting [2]); no less than 48.3 µM in the assay with HLA-A*01:01 (setting [2]); 1.62 µM with HLA-A*29:02 (setting [2]); no less than 69.7 µM in the assay with HLA-A*26:01 (setting [2]); 0.207 µM with HLA-A*23:01 (setting [2]).
In the case of YYPSARIVY, the Kd in the assay with HLA-A*24:02 (setting [2]) is no less than 105 µM; with HLA-A*30:02 (setting [2]), no less than 78.9 µM; in the assay with HLA-A*01:01 (setting [2]), no less than 45.5 µM; in the assay with HLA-A*29:02 (setting [2]) it was no less than 88.2 µM; with HLA-A*26:01 (setting [2]), 1.37 µM; with HLA-A*23:01 (setting [2]), no less than 84.5 µM.
As to CSYKIGHHV, the dissociation constant Kd was no less than 29.2 µM in the assay with HLA-A*24:02 (setting [3]); 0.0944 µM in the assay with HLA-A*30:02 (setting [3]); 0.0591 µM with HLA-A*01:01 (setting [3]); no less than 26.3 µM with HLA-A*29:02 (setting [3]); no less than 64.5 µM with HLA-A*26:01 (setting [3]); 17.5 µM with HLA-A*23:01 (setting [3]).
With LSEMLNKEY, the Kd with HLA-A*30:02 (setting [4]) is 14.7 µM; in the assay with HLA-A*01:01 (setting [4]), 0.00525 µM; with HLA-A*29:02 (setting [4]), 5.72 µM; in the assay with HLA-A*26:01 (setting [4]) it was no less than 77.9 µM; with HLA-A*32:01 (setting [4]), no less than 77.8 µM; in the assay with HLA-A*30:01 (setting [4]), 9.77 µM.
Consider PYMPTVIEEL, for which, in the assay with HLA-A*24:02 (setting [5]), the Kd came to 0.211 µM.
Regarding RPDTRHLRVL, the Kd with HLA-A*33:01 is no less than 70 µM; with HLA-A*02:06 (setting [6]), no less than 69.8 µM; in the assay with HLA-A*02:02 (setting [6]), no less than 70 µM; with HLA-A*31:01, no less than 70 µM; in the assay with HLA-B*51:01 it was no less than 69.6 µM; in the assay with HLA-A*02:03 (setting [6]), no less than 70.4 µM. The Kd with HLA-A*68:02 (setting [6]) was no less than 69.8 µM; with HLA-B*53:01 it was no less than 69.9 µM; with HLA-B*07:02, 0.0117 µM; with HLA-B*35:01 it was no less than 69.9 µM; with HLA-A*03:01 it was no less than 70.1 µM; with HLA-B*54:01, no less than 69.9 µM. Besides, the Kd was no less than 69.8 µM with HLA-A*11:01, no less than 69.4 µM with HLA-A*02:01 (setting [6]) and no less than 70.2 µM with HLA-A*68:01.
Turning to LLGMWGIAAI, the Kd with HLA-A*02:06 (setting [7]) is 0.00958 µM; with HLA-A*02:02 (setting [7]), 0.0243 µM; with HLA-A*02:03 (setting [7]), 0.00316 µM; with HLA-A*68:02 (setting [7]), no less than 42.2 µM; in the assay with HLA-A*02:01 (setting [7]), 0.0143 µM.
With SFIEVKSCHW, the Kd with HLA-A*23:01 (setting [8]) came to 0.461 µM.
Consider SFIEVKTCIW, for which the Kd in the assay with HLA-B*44:03 worked out at 1.26 µM; in the assay with HLA-A*23:01 (setting [9]), 0.0173 µM.
Regarding DTGNYILCY, the Kd with HLA-A*30:02 (setting [4]) was 18 µM; with HLA-A*01:01 (setting [4]) it was 0.273 µM; with HLA-A*29:02 (setting [4]) it was 1.41 µM; with HLA-A*26:01 (setting [4]), 5.73 µM; with HLA-A*32:01 (setting [4]) it was no less than 24.8 µM; with HLA-A*30:01 (setting [4]) it was 2.44 µM.
In the case of VTNLISETLK, the Kd with HLA-A*33:01 is no less than 34.2 µM; with HLA-A*02:06 (setting [6]), 17.3 µM; in the assay with HLA-A*02:02 (setting [6]) it was no less than 70 µM; with HLA-A*31:01 it was 3.27 µM; with HLA-B*51:01, no less than 69.6 µM; in the assay with HLA-A*02:03 (setting [6]), no less than 70.4 µM. For the same sequence, the Kd in the assay with HLA-A*68:02 (setting [6]) was no less than 34.9 µM; in the assay with HLA-B*53:01, no less than 69.9 µM; in the assay with HLA-B*07:02, no less than 69.6 µM; with HLA-B*35:01 it was no less than 69.9 µM; with HLA-A*03:01, 0.409 µM; with HLA-B*54:01, no less than 69.9 µM. For the same sequence, the Kd with HLA-A*11:01 was 0.00847 µM; with HLA-A*02:01 (setting [6]), no less than 69.4 µM; with HLA-A*68:01, 0.0944 µM.
For the sequence IAMGYVVSSF, the Kd was determined as 0.22 µM in the assay with HLA-A*30:02 (setting [1]); 5.14 µM with HLA-A*01:01 (setting [1]); 1.49 µM with HLA-A*29:02 (setting [1]); 0.53 µM with HLA-A*26:01 (setting [1]); 0.996 µM in the assay with HLA-A*32:01 (setting [1]); 9.1 µM with HLA-A*30:01 (setting [1]).
As for VTLITGNMSF, in the assay with HLA-A*24:02 (setting [8]), the Kd worked out at 11.5 µM.
On to CWCNATDTW, for which, in the assay with HLA-A*23:01 (setting [9]), the Kd was 0.711 µM.
With AYAQMWSLM, in the assay with HLA-A*24:02 (source organism: Dengue virus 3 Martinique/1243/1999), the Kd was 0.0121 µM.
Regarding GYKETPFLTI, the Kd was determined as 0.159 µM with HLA-A*24:02 (setting [4]), 0.108 µM with HLA-A*29:02 (setting [4]) and 0.139 µM with HLA-A*23:01 (setting [4]).
For the sequence ELINIPYCNY, the Kd with HLA-A*30:02 (setting [3]) is 0.0888 µM; with HLA-A*01:01 (setting [3]) it was 15.8 µM; in the assay with HLA-A*29:02 (setting [3]), 1.81 µM; in the assay with HLA-A*26:01 (setting [3]), 0.227 µM; with HLA-A*32:01 (setting [3]), no less than 28.3 µM; with HLA-A*30:01 (setting [3]) it was no less than 70.4 µM.
For the sequence TYGLNTFTNM, the Kd with HLA-A*23:01 (setting [8]) is 4.92 µM.
On to MWHVTRGSVI, for which the Kd is 1.28 µM with HLA-A*24:02 (setting [5]) and 1.08 µM in the assay with HLA-A*23:01 (setting [5]).
Turning to FYSEESPTEY, the Kd was no less than 27 µM with HLA-A*30:02 (setting [10]); 0.192 µM with HLA-A*01:01 (setting [10]); 0.0801 µM with HLA-A*29:02 (setting [10]); 7.36 µM with HLA-A*26:01 (setting [10]); no less than 69.9 µM in the assay with HLA-A*32:01 (setting [10]); no less than 48.7 µM in the assay with HLA-A*30:01 (setting [10]).
Take LLFASMGFK: the Kd with HLA-A*33:01 is 2.94 µM; with HLA-A*02:06 (setting [6]) it was 16.7 µM; in the assay with HLA-A*02:02 (setting [6]), 0.294 µM; in the assay with HLA-A*31:01, 0.0556 µM; with HLA-B*51:01, no less than 77.5 µM; with HLA-A*02:03 (setting [6]), 0.183 µM. The Kd is no less than 36.3 µM with HLA-A*68:02 (setting [6]); no less than 78.2 µM in the assay with HLA-B*53:01; no less than 77.5 µM with HLA-B*07:02; no less than 41.6 µM with HLA-B*35:01; 0.000874 µM in the assay with HLA-A*03:01; no less than 78.1 µM in the assay with HLA-B*54:01. Further, the Kd with HLA-A*11:01 is 0.00171 µM; with HLA-A*02:01 (setting [6]) it was 4.83 µM; in the assay with HLA-A*68:01 it was 0.0126 µM.
Consider QYVYMGQPL, for which the Kd with HLA-A*24:02 (setting [9]) turned out to be 4.52 µM.
GLVGLVTFLL: the Kd came out at 2.06 µM with HLA-A*02:06 (setting [11]); 0.191 µM with HLA-A*02:02 (setting [11]); 0.122 µM with HLA-A*02:03 (setting [11]); 0.214 µM in the assay with HLA-A*68:02 (setting [11]); 0.049 µM with HLA-A*02:01 (setting [11]).
For ATLMKTSCSK, the Kd is no less than 70 µM with HLA-A*33:01; no less than 69.8 µM with HLA-A*02:06 (setting [6]); no less than 70 µM in the assay with HLA-A*02:02 (setting [6]); 0.411 µM in the assay with HLA-A*31:01; no less than 69.6 µM in the assay with HLA-B*51:01; no less than 70.4 µM in the assay with HLA-A*02:03 (setting [6]). In addition, the Kd in the assay with HLA-A*68:02 (setting [6]) is no less than 69.8 µM; with HLA-B*53:01, no less than 69.9 µM; with HLA-B*07:02, no less than 21.6 µM; in the assay with HLA-B*35:01 it was no less than 69.9 µM; in the assay with HLA-A*03:01, 0.0336 µM; with HLA-B*54:01, no less than 69.9 µM. Also, the Kd in the assay with HLA-A*11:01 was 0.0199 µM; in the assay with HLA-A*02:01 (setting [6]), no less than 69.4 µM; with HLA-A*68:01 it was 4.95 µM.
Turning to GARVIWMDAY, the Kd with HLA-A*33:01 was 0.505 µM; with HLA-A*31:01, 0.22 µM; with HLA-A*29:02 (setting [6]) it was no less than 55.6 µM; in the assay with HLA-A*03:01 it was 1.02 µM; with HLA-A*11:01, 5.51 µM; with HLA-A*68:01 it was 0.978 µM.
For the sequence GWKNWQEVPF, the Kd with HLA-A*24:02 (setting [5]) was 0.19 µM; with HLA-A*23:01 (setting [5]), 0.43 µM.

For the origin of these results see the Immune Epitope Database (IEDB).
